Assay results from patent US10760049B2, “Generation of neural stem cells from undifferentiated human embryonic stem cells” (ES Cell International PTE Ltd., priority 2002, dated 2020).

How the values were obtained:
[1] = tested on: hES cell derived neural progenitors; test: Directed differentiation of neural progenitors towards a midbrain fate; scoring of TH+ clumps and TH+ neurons; assay type: cell-based, human; conditions: for effect on the proportion of TH+ clumps: added at 10 ng/ml to IBMX, Forskolin, PMA, dopamine and AA
Source text: Neurospheres that were generated from noggin treated ES cell colonies as described above (Example 1) were propagated 21-35 days in NPM supplemented with FGF-2 and EGF. At this point the spheres were chopped into small clumps (2000-3000 cells per clump). FGF-2 and EGF were removed from the medium and the progenitors were directed to take a midbrain fate by treatment with various factors for 6-8 days. During treatment with the various factors the clumps were either cultured in suspension or plated on poly-D-lysine and laminin. The factors included. FGF1, FGF8, FGF17 (R&D Systems) at concentrations of 100-200 ng/ml SHH (R&D Systems) at 0.5-1 μg/ml. Other signal transduction inducers: cAMP inducers: IBMX (Sigma, 0.25 mM), forskolin (Sigma 50 μM), PKC inducers PMA (Sigma 200 nM) and dopamine (Sigma 20 μM) were also used. The medium was also supplemented with the survival factors Ascorbic acid (AA) (Sigma) at concentration of 400-800 μM and NT4 (R&D Systems) at concentration of 20 ng/ml. The medium was changed every other day. To induce further differentiation into neurons, the spheres were again disaggregated into small clumps and plated on poly-D-lysine (30-70 kDa. 10 μg/ml, Sigma) and laminin (4 μg/ml, Sigma) and cultured in NPM in the absence of the factors and in the presence of AA with or without NT4 for 5-10 days. Differentiated cells were analysed by indirect immunofluorescence (as described in example 1) for the expression of β-tubulin type III (Sigma, 1:1000-3000) Tyrosine hydroxylase (TH) (Sigma anti mouse monoclonal, 1:250-500 and Pel-Freez anti rabbit polyclonal, 1:50-100) dopamine transporter (DAT;_Chemicon; rabbit polyclobal 1:50-100) and Nurr1 (Santa Cruz, Calif.; rabbit poly clonal 1:100-200). The proportion of clumps of cells that were comprised of a significant number of TH+ cells (>50 cells) was scored. Double immunostaining for TH and β-tubulin type III was used to analyse the percentage of cells within clumps expressing TH from the total number of neurons β-tubulin type III+cells). Multiple confocal microscopy images of consecutive planes through the clump were projected into one image for this analysis (FIG. 14) Ten-fifteen random fields were analysed.

[2] = tested on: human ES cells (HES-1 cell line); test: Noggin-directed differentiation of hES cell colonies on feeders; immunophenotype of derived spheres and rosette areas; assay type: cell-based
Description: To derive enriched preparations of neural progenitors, differentiation of human ES cells was directed into neural fate by transfer of undifferentiated hES cell clumps onto fresh feeders and culture in a modified hES cell medium with reduced serum concentration and in the presence of the BMP antagonist noggin. Specifically, human ES cells (HES-1 cell line, Reubinoff et al 2000, PCT/AU99/00990) with a stable normal (46XX) karyotype were cultured on mitomycin C mitotically inactivated mouse embryonic fibroblast feeder layer in gelatine coated tissue culture dishes as previously described (Reubinoff et al., 2000 PCT/AU99/00990 and PCT/AU01/00278). To induce differentiation, at the usual passage, clumps of undifferentiated ES cells were plated on fresh feeders and cultured in the usual hES medium supplemented with 10% serum (instead of 20%) and 500 ng/ml of noggin (R&D systems). Noggin (500 ng/ml) was further added to the medium every other day throughout a 6-8 day culture period (3-4 administrations). After 6-8 days, noggin was omitted and the cells were further cultured in the modified medium with 10% serum for additional 4-6 days. At this time about 12-14 days, about 70% of the colonies differentiated mostly into areas that were comprised of tightly packed small cells with a uniform grey opaque appearance under dark field stereo microscope (FIG. 1a, PCT/AU01/00278, PCT/AU01/00735). Other colonies differentiated into areas with structures that could resemble primitive neural rosettes (FIG. 1b).
Clumps of about 150 cells were mechanically isolated by using the razor-sharp edge of a micro glass pipette or a razor blade from the grey opaque areas and replated in serum-free medium supplemented with human recombinant FGF-2 and EGF. Specifically, the clusters of cells were transferred to plastic tissue culture dishes containing neural progenitors growth medium (NPM) that consisted of DMEM/F12 (1:1), B27 supplementation (1:50), glutamine 2 mM, penicillin 50 u/ml and streptomycin 50 μg/ml (Gibco), and supplemented with 20 ng/ml human recombinant epidermal growth factor (EGF), and 20 ng/ml fibroblast growth factor 2 (FGF2) (R & D Systems, Inc., Minneapolis, Minn.). Under these culture conditions the clumps formed free floating spherical structures within 24 hours and sequential propagation and expansion of the sphere cultures was possible as previously described (Reubinoff at al., 2001, PCT/AU01/00278) for prolonged periods (6 months).
During the initial weeks in culture, the spheres gradually acquired a uniform morphology (FIG. 3 A,B). A detailed analysis of marker expression by the cell within the spheres was conducted at 3-4, 8 and 12 weeks after derivation. The spheres were disaggregated into single cells that were plated, fixed and analysed by fluorescent immunohistochemistry for the expression of the early neural markers N-CAM, A2B5, PSA-NCAM and nestin. A high proportion of the cells expressed these markers (N-CAM 83±4% A2B5 84±4%, nestin 69±6% PSA-NCAM 74±2%) and the level of expression was stable during the 12 weeks period.
The phenotype of cells within the areas with structures that could resemble primitive neural rosettes (FIG. 1b) was also analyzed. These areas were mechanically dissected, and disaggregated. The cells were plated on laminin and cultured in NPM for two days.
(§1) In general, for the immunophenotyping of disaggregated neural progenitor cells and differentiated neurons, fixation with 4% paraformaldehyde for 20 minutes at room temperature was used unless otherwise specified. It was followed by blocking with 5% heat inactivated goat serum (Dako) and permeabilization with 0.2% Triton X (Sigma) in PBS with 0.1% BSA for 30 minutes. Samples were incubated with the primary antibodies at room temperature for one hour. […]

[3] = tested on: undifferentiated human ES cell clumps; test: hES cell clumps cultured in suspension in NPM+FGF2 with or without noggin; indirect immunofluorescence for neural and non-neural markers; assay type: cell-based; conditions: for proportion of cells expressing endodermal and mesodermal markers: noggin 350 and 700 ng/ml versus no noggin, then a week of differentiation
Description: In an alternative approach, undifferentiated human ES cell clumps of about 200 cells were transferred into NPM and cultured in suspension in the presence of noggin (350 and 700 ng/ml) for approximately 3 weeks. To further induce neural differentiation, proliferation and prevent the differentiation of neural progenitors the medium was also supplemented with human recombinant FGF-2 (20 ng/ml). LIF (10 ng/ml) was also included in the medium in early experiments. The media was replaced twice a week. Under these culture conditions the clumps of hES cells turned into round spheres within 7 days (FIG. 3 C,D).
To evaluate the effect of these culture conditions, we have evaluated the phenotype of cells within clumps following three weeks of culture. We have examined two concentrations of noggin (350 and 700 ng/ml) in comparison to culture in NPM supplemented with FGF2 in the absence of noggin. The clusters were disaggregated into single cells or small clumps that were plated, cultured for 4 hours on laminin, fixed and analysed by indirect immunofluorescence for the expression of the early neural markers nestin, A2B5 and N-CAM. Markers of endoderm (probably extraembryonic; low molecular weight (LMW) cytokeratin and laminin) and mesoderm (muscle specific actin and desmin) were examined after a week of differentiation. Immunofluorescence methods and source of antibodies are described below in section (C).
To analyse and differentiate between the effect of NPM supplemented with FGF2 and noggin on the differentiation of the hES cell clusters we have characterized and compared the differentiation of these clusters following culture in three different media (FIG. 5): (a) NPM supplemented with b-FGF and noggin (700 ng/ml), (b) the same medium without noggin and (c) knockout (KO) medium. After three weeks of culture a significant difference in the morphology of the clusters was observed. Clusters that were cultured in KO medium had the typical morphology of embryoid bodies (EBs, FIG. 5c). Clusters that were cultured in NPM and FGF2 were characterized by cystic structures and areas of dense cells resembling neural spheres (FIG. 5b). Clusters that were cultured in the presence of noggin had the typical morphology of neural spheres without cystic structures (FIG. 5a).
Clusters that were cultured in NPM with (FIG. 5a) or without noggin (FIG. 5b) were further cultured for an additional 3 weeks in NPM supplemented with FGF2 in the absence of noggin (FIG. 5).
To characterize and compare the phenotype of cells within the clusters following differentiation and propagation at the various culture conditions (FIG. 5), the clusters were disaggregated after 3 weeks in culture into single cells or small clumps that were plated, cultured for 4 hours on laminin, fixed and analysed for the expression of the early neural markers nestin, A2B5, N-CAM, PSA-NCAM and β-tubulin III (FIG. 6). The same analysis was done after additional 3 weeks of culture in NPM supplemented with FGF2 (FIG. 7).
The percentage of cells within the clumps that expressed non-neural markers at 3 weeks (FIG. 8) and 6 weeks (FIG. 9) of the same floating cultures as above was analysed. Indirect immuno fluorescence analysis of the expression of non-neural markers was performed following disaggregation of the clumps and one week of differentiation on laminin.
as §1

[4] = tested on: undifferentiated human ES cell clumps; test: RT-PCR of non-neural marker transcripts in noggin treated hES cell clumps; assay type: cell-based
Description: At the RNA level, RT-PCR analysis confirmed that in the noggin treated clumps the expression of the endodermal (probably extraembryonic) marker alpha-fetal protein was reduced/undetectable at 3 weeks. This marker was also undetectable at 6 weeks.
RT-PCR was performed as previously described (Reubinoff et al., 2001). Primer sequences (forward and reverse) and the length of amplified products were as previously described (Reubinoff et al 2001) for alpha-feto-protein and HNF3a and as follows for keratin 8: […]

[5] = spheres derived from noggin treated colonies, 3-4, 8 and 12 weeks after derivation
[6] = three weeks in NPM+FGF2+noggin (700 ng/ml)

O=C1O[C@H]([C@@H](O)CO)C(O)=C1O [ascorbic acid, reference compound]
percentage of TH+ neurons from the total number of neurons (β-tubulin type III+ cells) ([1]; confocal microscopy, cellular level): 45% | proportion of TH+ clumps (clumps with >50 TH+ cells) ([1]; factors for 6-8 days after removal of FGF-2 and EGF, then differentiation on poly-D-lysine and laminin with AA): 35%

FGF-1: fibroblast growth factor FGF1 (R&D Systems)
effect on the proportion of TH+ clumps [1]: did not increase

B1: noggin: BMP antagonist noggin (R&D systems) (protein, UniProt Q13253 28-232, looked up)
Noggin: QHYLHIRPAPSDNLPLVDLIEHPDPIFDPKEKDLNETLLRSLLGGHYDPGFMATSPPEDRPGGGGGAAGGAEDLAELDQLLRQRPSGAMPSEIKGLEFSEGLAQGKKQRLSKKLRRKLQMWLWSQTFCPVLYAWNDLGSRFWPRYVKVGSCFSKRSCSVPEGMVCKPSKSVHLTVLRWRCQRRGGQRCGWIPIQYPIISECKCSC
cells expressing N-CAM and nestin ([2]; areas resembling primitive neural rosettes in noggin treated colonies, two days on laminin in NPM): 95-100% | colonies differentiated mostly into areas of tightly packed small cells ([2]; noggin 500 ng/ml every other day for 6-8 days, 10% serum, on feeders, scored at about 12-14 days): about 70% | cells expressing A2B5 [2, 5]: 84±4% | cells expressing N-CAM [2, 5]: 83±4% | cells expressing PSA-NCAM [2, 5]: 74±2% | cells expressing nestin [2, 5]: 69±6% | cells expressing non-neural markers ([3]; after additional 3 weeks of culture in NPM+FGF2 (6 weeks)): undetectable or rare | percentage of cells expressing nestin and A2B5 versus NPM+FGF2 without noggin ([3]; noggin 700 ng/ml, three weeks): slightly higher | proportion of cells expressing endodermal and mesodermal markers ([3]; three weeks): significantly reduced after noggin treatment in a dose dependent manner | proportion of cells expressing endodermal and mesodermal markers ([3]; three weeks, listed as Noggin): reduced in a dose dependent manner | percentage of cells expressing non-neural markers ([3]; noggin treated cultures after 3 weeks, one week of differentiation on laminin): significant reduction | percentage of cells expressing A2B5 [3, 6]: 95.6% | percentage of cells expressing NCAM [3, 6]: 73% | percentage of cells expressing NCAM ([3]; three weeks in NPM+FGF2+noggin, then additional 3 weeks in NPM+FGF2): 93% | expression of endodermal marker alpha-fetal protein (RT-PCR) ([4]; 3 weeks): reduced/undetectable | expression of transcripts of epidermal marker keratin-14 (RT-PCR) ([4]; 3 weeks): significantly reduced | expression of endodermal marker HNF3α (RT-PCR) ([4]; 6 weeks): reduced/undetectable | expression of endodermal marker alpha-fetal protein (RT-PCR) ([4]; 6 weeks): undetectable | expression of transcripts of epidermal marker keratin-14 (RT-PCR) ([4]; 6 weeks): undetectable

B2: FGF-8: fibroblast growth factor FGF8 (R&D Systems) (protein, UniProt P55075 23-233, looked up)
Fibroblast growth factor 8: QEGPGRGPALGRELASLFRAGREPQGVSQQHVREQSLVTDQLSRRLIRTYQLYSRTSGKHVQVLANKRINAMAEDGDPFAKLIVETDTFGSRVRVRGAETGLYICMNKKGKLIAKSNGKGKDCVFTEIVLENNYTALQNAKYEGWYMAFTRKGRPRKGSKTRQHQREVHFMKRLPRGHHTTEQSLRFEFLNYPPFTRSLRGSQRTWAPEPR
effect on the proportion of TH+ clumps [1]: did not increase
